Assay [1] addresses wild-type IL-23 (His-tagged p19 / non-tagged p40) (human) (UniProt P29460). Nature of the assay: cell-based or functional assay.
Assay [2] has as its target IL-23 alanine shave mutant M9 (human) (UniProt P29460). The assay is described as follows: cell-based or functional assay.
Assay [3] concerns the target IL-23 alanine shave mutant M7 (human) (UniProt P29460). The assay is described as follows: cell-based or functional assay.
The target of assay [4] is IL-23 alanine shave mutant M10 (human) (UniProt P29460). Nature of the assay: cell-based or functional assay.
Assay [5] concerns the target IL-23 H53A (human) (UniProt P29460). The assay is described as follows: SPR Biacore, antibody captured on protein A, single alanine mutants of IL-23. In general terms: Surface plasmon resonance follows binding to a sensor surface in real time, without labels.
Assay [6] deals with IL-23 D55A (human) (UniProt P29460). The description is as above.
The target of assay [7] is IL-23 E112A (human) (UniProt P29460). The description is as above.
The target in assay [8] is IL-23 M54A (human) (UniProt P29460). The description is as above.
In assay [9] the target is IL-23 D118A (human) (UniProt P29460). The assay is described as above.
The target in assay [10] is IL-23 L116A (human) (UniProt P29460). The description is as above.
In assay [11] the target is wild-type IL-23 (His-tagged p19 / non-tagged p40) (human) (UniProt P29460). The assay is described as follows: cell-based or functional assay. The source holds these as a separate data set.
Assay [12] has as its target IL-23 H53A (human) (UniProt P29460). Nature of the assay: cell-based or functional assay.
Assay [13] has as its target IL-23 D55A (human) (UniProt P29460). The assay is described as follows: cell-based or functional assay.
The target of assay [14] is IL-23 E112A (human) (UniProt P29460). The assay is described as follows: cell-based or functional assay.
Assay [15] has as its target IL-23 M54A (human) (UniProt P29460). Nature of the assay: cell-based or functional assay.
For assay [16], the target named is IL-23 D118A (human) (UniProt P29460). Nature of the assay: cell-based or functional assay.
Assay [17] deals with IL-23 L116A (human) (UniProt P29460). Nature of the assay: cell-based or functional assay.
For assay [18], the target named is IL-23 alanine shave mutant M9 (human) (UniProt P29460). The assay is described as follows: SPR Biacore T100, antibody captured on protein A, purified IL-23 variant, 1:1 Langmuir.
Assay [19] deals with IL-23 alanine shave mutant M5 (human) (UniProt P29460). Described as above.
The target in assay [20] is IL-23 alanine shave mutant M7 (human) (UniProt P29460). The description is as above.
In assay [21] the target is IL-23 alanine shave mutant M10 (human) (UniProt P29460). The description is as above.
Assay [22] addresses IL-23 alanine shave mutant M5 (human) (UniProt P29460). The assay is described as follows: cell-based or functional assay.

Read-outs that look alike come from different tables or passages of the source. Bounds are passed on as bounds.

On to Merck's IL-23 p19 mAb (7G10) (antibody), for which the IC50, IL-23 variant-induced pSTAT3 in BaF3/huIL-23Ra/huIL-12Rb1 transfectants in assay [1] worked out at 380 pM; in [2] it was 260 pM; in assay [3] it was 310 pM; in assay [4], 350 pM; in assay [11], 0.18 nM; with IL-23 H53A (human) [12], 0.19 nM. The IC50, IL-23 variant-induced pSTAT3 in BaF3/huIL-23Ra/huIL-12Rb1 transfectants was 0.18 nM with IL-23 D55A (human) [13]; above 0.003 µM in the assay with IL-23 E112A (human) [14]; 0.27 nM with IL-23 M54A (human) [15]; 0.22 nM in the assay with IL-23 D118A (human) [16]; 0.24 nM in the assay with IL-23 L116A (human) [17]. In addition, the ΔΔG with IL-23 H53A (human) [5] is 0 kcal/mol; with IL-23 D55A (human) [6] it was 0.7 kcal/mol; with IL-23 E112A (human) [7] it was 1.7 kcal/mol; with IL-23 M54A (human) [8], 1 kcal/mol; with IL-23 D118A (human) [9], -0.3 kcal/mol; with IL-23 L116A (human) [10] it was 0.2 kcal/mol. Moreover, the ΔΔG in [18] turned out to be 0.2 kcal/mol; in assay [19], 1.9 kcal/mol; in [20] it was 0.2 kcal/mol; in [21], 0.4 kcal/mol.

Take “STELARA (ustekinumab, IL-12/IL-23 p40 mAb) (antibody)”: the IC50, IL-23 variant-induced pSTAT3 in BaF3/huIL-23Ra/huIL-12Rb1 transfectants was 79 pM in assay [1]; 67 pM in assay [2]; 62 pM in [22]; 59 pM in [3]; 71 pM in [4]; 67 pM in [11]. Further, the IC50, IL-23 variant-induced pSTAT3 in BaF3/huIL-23Ra/huIL-12Rb1 transfectants with IL-23 H53A (human) [12] was 78 pM; with IL-23 D55A (human) [13], 77 pM; with IL-23 E112A (human) [14], 33 pM; in the assay with IL-23 M54A (human) [15] it was 81 pM; in the assay with IL-23 D118A (human) [16], 52 pM; with IL-23 L116A (human) [17], 54 pM. The ΔΔG with IL-23 H53A (human) [5] is 0.3 kcal/mol; with IL-23 D55A (human) [6], 0.5 kcal/mol; with IL-23 E112A (human) [7] it was 0.3 kcal/mol; with IL-23 M54A (human) [8], 0.3 kcal/mol; in the assay with IL-23 D118A (human) [9], -0.3 kcal/mol; with IL-23 L116A (human) [10] it was 0.5 kcal/mol. Also, the ΔΔG in [18] amounted to 0.1 kcal/mol; in assay [19] it was 0.1 kcal/mol; in assay [20], 0.1 kcal/mol; in [21] it was 0.3 kcal/mol.

For the origin of these results see patent US20170275357A1.
